{
  "source": "patent US20060105378",
  "biological_target": "Tenascin-C (Homo sapiens) (UniProt P24821)",
  "sequence (P24821 23-2201)": "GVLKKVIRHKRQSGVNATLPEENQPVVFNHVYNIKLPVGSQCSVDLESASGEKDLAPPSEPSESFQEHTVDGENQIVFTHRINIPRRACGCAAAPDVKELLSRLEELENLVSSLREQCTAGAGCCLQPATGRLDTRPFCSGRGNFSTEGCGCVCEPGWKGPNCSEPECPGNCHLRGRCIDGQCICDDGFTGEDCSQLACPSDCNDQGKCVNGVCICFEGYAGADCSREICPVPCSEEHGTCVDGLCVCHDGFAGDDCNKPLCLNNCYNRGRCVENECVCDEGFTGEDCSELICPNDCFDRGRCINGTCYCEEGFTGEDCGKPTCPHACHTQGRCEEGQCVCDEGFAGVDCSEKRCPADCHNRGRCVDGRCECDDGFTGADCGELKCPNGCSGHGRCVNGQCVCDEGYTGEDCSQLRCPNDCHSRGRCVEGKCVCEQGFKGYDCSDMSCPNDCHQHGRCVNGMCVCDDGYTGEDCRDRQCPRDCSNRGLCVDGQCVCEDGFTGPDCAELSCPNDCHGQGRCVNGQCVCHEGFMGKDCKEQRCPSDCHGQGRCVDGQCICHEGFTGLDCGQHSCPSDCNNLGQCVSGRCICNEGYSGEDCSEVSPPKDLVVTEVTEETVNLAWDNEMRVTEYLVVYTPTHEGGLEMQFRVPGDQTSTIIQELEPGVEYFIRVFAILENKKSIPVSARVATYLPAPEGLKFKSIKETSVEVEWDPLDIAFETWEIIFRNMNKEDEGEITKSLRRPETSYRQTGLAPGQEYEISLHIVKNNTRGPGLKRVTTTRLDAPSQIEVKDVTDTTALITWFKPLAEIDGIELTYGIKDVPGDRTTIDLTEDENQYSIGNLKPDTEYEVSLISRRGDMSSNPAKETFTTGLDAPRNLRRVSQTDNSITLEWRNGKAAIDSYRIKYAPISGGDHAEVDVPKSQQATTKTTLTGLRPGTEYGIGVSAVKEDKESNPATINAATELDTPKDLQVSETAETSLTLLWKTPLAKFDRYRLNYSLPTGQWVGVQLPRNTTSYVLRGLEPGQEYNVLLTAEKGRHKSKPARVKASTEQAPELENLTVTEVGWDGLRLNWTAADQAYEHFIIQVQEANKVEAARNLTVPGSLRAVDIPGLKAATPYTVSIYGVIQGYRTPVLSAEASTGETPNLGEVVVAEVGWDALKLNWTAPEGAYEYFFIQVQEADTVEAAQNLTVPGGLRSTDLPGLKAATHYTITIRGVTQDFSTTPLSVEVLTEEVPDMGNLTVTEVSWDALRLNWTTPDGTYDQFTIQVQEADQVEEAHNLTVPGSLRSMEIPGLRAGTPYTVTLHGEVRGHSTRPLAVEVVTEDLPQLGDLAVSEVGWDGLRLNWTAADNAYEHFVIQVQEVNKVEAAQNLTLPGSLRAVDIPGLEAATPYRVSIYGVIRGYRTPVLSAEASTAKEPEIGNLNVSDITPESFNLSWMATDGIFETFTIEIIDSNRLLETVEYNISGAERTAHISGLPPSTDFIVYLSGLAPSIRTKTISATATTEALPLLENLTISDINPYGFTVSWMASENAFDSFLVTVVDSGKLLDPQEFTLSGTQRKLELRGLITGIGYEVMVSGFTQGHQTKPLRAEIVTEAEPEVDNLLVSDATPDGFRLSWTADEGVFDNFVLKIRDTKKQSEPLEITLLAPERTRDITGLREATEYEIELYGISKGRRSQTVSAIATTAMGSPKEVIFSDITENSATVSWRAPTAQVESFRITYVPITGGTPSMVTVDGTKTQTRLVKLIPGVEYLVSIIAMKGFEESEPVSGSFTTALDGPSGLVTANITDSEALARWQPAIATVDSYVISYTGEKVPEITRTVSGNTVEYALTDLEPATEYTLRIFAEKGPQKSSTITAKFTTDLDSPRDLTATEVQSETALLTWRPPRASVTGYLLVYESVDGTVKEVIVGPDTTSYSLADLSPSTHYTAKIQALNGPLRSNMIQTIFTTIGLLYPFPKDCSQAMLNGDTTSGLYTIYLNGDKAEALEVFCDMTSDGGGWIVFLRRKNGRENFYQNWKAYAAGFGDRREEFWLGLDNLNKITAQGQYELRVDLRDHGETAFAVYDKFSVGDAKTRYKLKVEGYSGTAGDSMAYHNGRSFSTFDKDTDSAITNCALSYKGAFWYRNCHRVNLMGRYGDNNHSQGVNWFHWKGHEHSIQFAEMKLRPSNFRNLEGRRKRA",
  "assay": "filter",
  "conditions": "2'-F all C and U; 2'-OMe all A and G except G1,G9,G28,G31,G34 (TN9 numbering) 2'-OH; (CH2CH2O)6 spacer replaces nt 10-26 (n in SEQ 64); 5' hexylamine; 3'-3' dT cap",
  "data": [
    {"sequence": "GGGAGGACGNCGUCGCCGUAAUGGAUGUUUUGCUCCCUG [TTA1 (GS7641)]", "values": [
      {"measurement": "Kd", "value": 5, "unit": "nM"}
    ]}
  ]
}
